Article doi:10.1101/2021.09.20.461090

Biological target: extended E34 TSP (E34 phage tailspike protein with the N-terminal 43 amino acid fusion peptide) (E34 phage)
Experiment: SDS-PAGE of unheated against unfolded samples

Substance: extended E34 TSP (E34 phage tailspike protein with the N-terminal 43 amino acid fusion peptide) (natural protein)
- stoichiometry N: 3
